{"source": "patent US20030186281A1", "about": "“Modified tetracycline repressor protein compositions and methods of use” (priority 2001, published 2003)", "molecules": {"B1": {"name": "TetRrevAD3/5: revTetR(BD) L17L N18K E19V I22T 53Y A54S (protein)", "chain": "MSRLDKSKVINSALELLKVVGTEGLTTRKLAQKLGVEQPTLYWHVKNKRALLYSLAVEILARHHDYSLPAAGESWQSFLRNNAMSFRRALLRYRDGAKVHLGTRPDEKQYDTVETQLRFMTENGFSLRDGLYAISAVSHFTLGAVLEQQEHTAALTDRPAAPDENLPPLLREALQIMDSDDGEQAFLHGLESLIRGFEVQLTALLQIV", "modifications": "Modified tetracycline repressor", "notes": "revTetR(BD) L17L N18K E19V I22T 53Y A54S"}, "B2": {"name": "TetRrevAtc4-11: revTetR(BD) L55L A56P R62S (protein)", "chain": "MSRLDKSKVINSALELLNEVGIEGLTTRKLAQKLGVEQPTLYWHVKNKRALLDALPVEILASHHDYSLPAAGESWQSFLRNNAMSFRRALLRYRDGAKVHLGTRPDEKQYDTVETQLRFMTENGFSLRDGLYAISAVSHFTLGAVLEQQEHTAALTDRPAAPDENLPPLLREALQIMDSDDGEQAFLHGLESLIRGFEVQLTALLQIV", "modifications": "Modified tetracycline repressor", "notes": "revTetR(BD) L55L A56P R62S"}, "B3": {"name": "TetRrevAD3/6: revTetR(BD) V20G A56P I59L R62R (protein)", "chain": "MSRLDKSKVINSALELLNEGGIEGLTTRKLAQKLGVEQPTLYWHVKNKRALLDALPVELLARHHDYSLPAAGESWQSFLRNNAMSFRRALLRYRDGAKVHLGTRPDEKQYDTVETQLRFMTENGFSLRDGLYAISAVSHFTLGAVLEQQEHTAALTDRPAAPDENLPPLLREALQIMDSDDGEQAFLHGLESLIRGFEVQLTALLQIV", "modifications": "Modified tetracycline repressor", "notes": "revTetR(BD) V20G A56P I59L R62R"}, "B4": {"name": "TetRrevAD3/7: revTetR(BD) L17M E19D L52L D53Y A54A A56E (protein)", "chain": "MSRLDKSKVINSALELMNDVGIEGLTTRKLAQKLGVEQPTLYWHVKNKRALLYALEVEILARHHDYSLPAAGESWQSFLRNNAMSFRRALLRYRDGAKVHLGTRPDEKQYDTVETQLRFMTENGFSLRDGLYAISAVSHFTLGAVLEQQEHTAALTDRPAAPDENLPPLLREALQIMDSDDGEQAFLHGLESLIRGFEVQLTALLQIV", "modifications": "Modified tetracycline repressor", "notes": "revTetR(BD) L17M E19D L52L D53Y A54A A56E"}, "B5": {"name": "TetRrevAD3/8: revTetR(BD) L16L A56A V57E E58L I59N L60A (protein)", "chain": "MSRLDKSKVINSALELLNEVGIEGLTTRKLAQKLGVEQPTLYWHVKNKRALLDALAELNVARHHDYSLPAAGESWQSFLRNNAMSFRRALLRYRDGAKVHLGTRPDEKQYDTVETQLRFMTENGFSLRDGLYAISAVSHFTLGAVLEQQEHTAALTDRPAAPDENLPPLLREALQIMDSDDGEQAFLHGLESLIRGFEVQLTALLQIV", "modifications": "Modified tetracycline repressor", "notes": "revTetR(BD) L16L A56A V57E E58L I59N L60A"}, "B6": {"name": "TetRrevAF2/14: revTetR(BD) L14L E15A L16L L17V N18N; V20V G96V (protein)", "chain": "MSRLDKSKVINSALALVNEVGIEGLTTRKLAQKLGVEQPTLYWHVKNKRALLDALAVEILARHHDYSLPAAGESWQSFLRNNAMSFRRALLRYRDVAKVHLGTRPDEKQYDTVETQLRFMTENGFSLRDGLYAISAVSHFTLGAVLEQQEHTAALTDRPAAPDENLPPLLREALQIMDSDDGEQAFLHGLESLIRGFEVQLTALLQIV", "modifications": "Modified tetracycline repressor", "notes": "revTetR(BD) L14L E15A L16L L17V N18N; V20V G96V"}, "B7": {"name": "TetRrevAF2/15: revTetR(BD) V20G I22N R49Q A50T (protein)", "chain": "MSRLDKSKVINSALELLNEGGNEGLTTRKLAQKLGVEQPTLYWHVKNKQTLLDALAVEILARHHDYSLPAAGESWQSFLRNNAMSFRRALLRYRDGAKVHLGTRPDEKQYDTVETQLRFMTENGFSLRDGLYAISAVSHFTLGAVLEQQEHTAALTDRPAAPDENLPPLLREALQIMDSDDGEQAFLHGLESLIRGFEVQLTALLQIV", "modifications": "Modified tetracycline repressor", "notes": "revTetR(BD) V20G I22N R49Q A50T"}, "B8": {"name": "TetRrevAF2/16: revTetR(BD) E19V Y93C D95Y A97T K98N V99L L101L (protein)", "chain": "MSRLDKSKVINSALELLNVVGIEGLTTRKLAQKLGVEQPTLYWHVKNKRALLDALAVEILARHHDYSLPAAGESWQSFLRNNAMSFRRALLRCRYGTNLHLGTRPDEKQYDTVETQLRFMTENGFSLRDGLYAISAVSHFTLGAVLEQQEHTAALTDRPAAPDENLPPLLREALQIMDSDDGEQAFLHGLESLIRGFEVQLTALLQIV", "modifications": "Modified tetracycline repressor", "notes": "revTetR(BD) E19V Y93C D95Y A97T K98N V99L L101L"}, "B9": {"name": "TetRrevAF3/5: revTetR(BD) V20F G21R R49S (protein)", "chain": "MSRLDKSKVINSALELLNEFRIEGLTTRKLAQKLGVEQPTLYWHVKNKSTLLDALAVEILARHHDYSLPAAGESWQSFLRNNAMSFRRALLRYRDGAKVHLGTRPDEKQYDTVETQLRFMTENGFSLRDGLYAISAVSHFTLGAVLEQQEHTAALTDRPAAPDENLPPLLREALQIMDSDDGEQAFLHGLESLIRGFEVQLTALLQIV", "modifications": "Modified tetracycline repressor", "notes": "revTetR(BD) V20F G21R R49S"}, "B10": {"name": "TetRrevAD3/9: revTetR(BD) E15Q L17L L55M I59R (protein)", "chain": "MSRLDKSKVINSALQLLNEVGIEGLTTRKLAQKLGVEQPTLYWHVKNKRALLDAMAVERLARHHDYSLPAAGESWQSFLRNNAMSFRRALLRYRDGAKVHLGTRPDEKQYDTVETQLRFMTENGFSLRDGLYAISAVSHFTLGAVLEQQEHTAALTDRPAAPDENLPPLLREALQIMDSDDGEQAFLHGLESLIRGFEVQLTALLQIV", "modifications": "Modified tetracycline repressor", "notes": "revTetR(BD) E15Q L17L L55M I59R"}, "B11": {"name": "TetRrevAD3/10: revTetR(BD) N18Y G24G L51L D53Y A54V (protein)", "chain": "MSRLDKSKVINSALELLYEVGIEGLTTRKLAQKLGVEQPTLYWHVKNKRALLYVLAVEILARHHDYSLPAAGESWQSFLRNNAMSFRRALLRYRDGAKVHLGTRPDEKQYDTVETQLRFMTENGFSLRDGLYAISAVSHFTLGAVLEQQEHTAALTDRPAAPDENLPPLLREALQIMDSDDGEQAFLHGLESLIRGFEVQLTALLQIV", "modifications": "Modified tetracycline repressor", "notes": "revTetR(BD) N18Y G24G L51L D53Y A54V"}, "B12": {"name": "TetRrevAF3/6: revTetR(BD) E23K D95H L101H (protein)", "chain": "MSRLDKSKVINSALELLNEVGIKGLTTRKLAQKLGVEQPTLYWHVKNKRALLDALAVEILARHHDYSLPAAGESWQSFLRNNAMSFRRALLRYRHGAKVHHGTRPDEKQYDTVETQLRFMTENGFSLRDGLYAISAVSHFTLGAVLEQQEHTAALTDRPAAPDENLPPLLREALQIMDSDDGEQAFLHGLESLIRGFEVQLTALLQIV", "modifications": "Modified tetracycline repressor", "notes": "revTetR(BD) E23K D95H L101H"}}, "tested_on": "tet operator sequence", "experiment": "β-galactosidase activity of a tetracycline-regulated promoter in transformed E. coli with revTetR, in the presence and absence of anhydrotetracycline (atc)", "assay_type": "cell-based, Escherichia coli", "details": "for β-Galactosidase Activity, Cultured Without ATC: RevTetR isolate cultured in the absence of anhydrotetracycline (ATC); for β-Galactosidase Activity, Cultured With ATC: RevTetR isolate cultured in the presence of anhydrotetracycline (ATC)", "experimental": "The relative activity of revTetR repressors was determined at 28° C. and 37° C. for each clone by measuring β-galactosidase activity of a tetracycline-regulated promoter in transformed Escherichia coli in the presence and absence of the tetracycline analog, anhydrotetracycline (atc). The relative β-galactosidase activity was measured in standard Miller units and is presented as the percent of maximal expression as measured in the absence of Tet repressor. […] With respect to each mutant, as well as the wild-type controls, FIG. 2 provides two horizontal bars; the upper horizontal bar represents the level of β-galactosidase activity in the absence of anhydrotetracycline (−atc) while the lower horizontal bar represents the level of β-galactosidase activity in the presence of anhydrotetracycline (+atc).\nThe pool of mutated Tet repressors was cloned into plasmid pWH1411 (Baumeister et al., 1992, Proteins: Struct. Funct. Genet. 14: 168-77), which carries a TetR(B) gene, to provide a TetR(BD) chimera that included, as the amino-terminal portion, amino acid residues 1 to 50 of the TetR(B) gene and, as the carboxyl-terminal portion, amino acid residues 51 to 208 of the TetR(D) gene. The resulting plasmid pool was screened in a genetic assay which positively selects for a functional interaction between a Tet repressor and its cognate operator using E. coli strain WH207(λWH25) (the construction of this strain is described in detail in Wissmann et al., (1991) Genetics 128: 225-32). In this E. coli strain, tet operators direct the expression of divergently arranged β-galactosidase (lacZ) and Lac repressor (lacI) genes and the lac regulatory region directs the expression of a galactokinase (galK) gene on plasmid pWH414. Binding of Tet repressors to tet operators turns off transcription of the lacI and lacZ genes. The absence of Lac repressor allows for expression of the galK gene, which enables the E. coli strain to use galactose as a sole carbon source, which serves as one marker. The lacZ^− phenotype serves as a second marker. Thus, bacteria containing Tet repressors which bind to tet operators, have a Gal^+, lacZ^− phenotype. Bacteria containing wild-type Tet repressors have a Gal^+, lacZ^− phenotype in the absence of tetracycline. Modified “reverse” Tet repressors (revTetR) were selected based upon a Gal^+, lacZ^− phenotype in the presence of tetracycline.\nThe ability of each revTetR clone to bind to its cognate tet operator sequence and regulate transcription in a prokaryotic organism, Escherichia coli, in the presence and absence of a tetracycline analog (anhydrotetracycline, atc) was determined (Table 3, FIG. 2). The relative ratios of non-repressed to repressed levels of transcription for the 15 clones range from about 1.4-fold to about 50-fold at 28° C. and from about 1.3-fold to 40-fold at 37° C. For example, clone 4b comprising an amino acid substitution of glutamic acid for glycine at position 96 (e.g., SEQ ID NO. 24) repressed transcription 19-fold at 37° C. but to a less extent at 28° C. (5.7-fold, Table 3). Furthermore, clones 14, 5a and 7 comprising the arginine for glycine substitution at position 96 and further comprising a substitution or substitutions of serine for threonine at position 103 and valine for glutamic acid at position 114; leucine for proline at position 159; or glutamine to histidine at position 188, respectively, have pronouncedly different activities.\nwherein each underlined base was present in approximately 85% of the oligonucleotides, while the remaining approximately 15% of the oligonucleotides contained one of the other three, non-wild type bases at that position. Similar mutagenic, partially randomized oligonucleotides were prepared for mutagenesis of the coding regions for amino acids 14-25 and 93-102. It was predicted that, according to a binomial distribution, each oligonucleotide would contain three to four mutations. […]", "data": [{"molecule": "B1", "values": [{"measurement": "β-Galactosidase Activity, Cultured Without ATC", "value": 89.8129}, {"measurement": "β-Galactosidase Activity, Cultured With ATC", "value": 1.1481}]}, {"molecule": "B2", "values": [{"measurement": "β-Galactosidase Activity, Cultured Without ATC", "value": 103.132}, {"measurement": "β-Galactosidase Activity, Cultured With ATC", "value": 17.479}]}, {"molecule": "B3", "values": [{"measurement": "β-Galactosidase Activity, Cultured Without ATC", "value": 93.0552}, {"measurement": "β-Galactosidase Activity, Cultured With ATC", "value": 1.6494}]}, {"molecule": "B4", "values": [{"measurement": "β-Galactosidase Activity, Cultured Without ATC", "value": 73.4537}, {"measurement": "β-Galactosidase Activity, Cultured With ATC", "value": 2.4531}]}, {"molecule": "B5", "values": [{"measurement": "β-Galactosidase Activity, Cultured Without ATC", "value": 65.0174}, {"measurement": "β-Galactosidase Activity, Cultured With ATC", "value": 1.9046}]}, {"molecule": "B6", "values": [{"measurement": "β-Galactosidase Activity, Cultured Without ATC", "value": 90.5688}, {"measurement": "β-Galactosidase Activity, Cultured With ATC", "value": 1.239}]}, {"molecule": "B7", "values": [{"measurement": "β-Galactosidase Activity, Cultured Without ATC", "value": 82.5755}, {"measurement": "β-Galactosidase Activity, Cultured With ATC", "value": 2.828}]}, {"molecule": "B8", "values": [{"measurement": "β-Galactosidase Activity, Cultured Without ATC", "value": 90.6438}, {"measurement": "β-Galactosidase Activity, Cultured With ATC", "value": 2.622}]}, {"molecule": "B9", "values": [{"measurement": "β-Galactosidase Activity, Cultured Without ATC", "value": 101.824}, {"measurement": "β-Galactosidase Activity, Cultured With ATC", "value": 4.696}]}, {"molecule": "B10", "values": [{"measurement": "β-Galactosidase Activity, Cultured Without ATC", "value": 60.2932}, {"measurement": "β-Galactosidase Activity, Cultured With ATC", "value": 4.2427}]}, {"molecule": "B11", "values": [{"measurement": "β-Galactosidase Activity, Cultured Without ATC", "value": 89.1669}, {"measurement": "β-Galactosidase Activity, Cultured With ATC", "value": 3.5004}]}, {"molecule": "B12", "values": [{"measurement": "β-Galactosidase Activity, Cultured Without ATC", "value": 77.2272}, {"measurement": "β-Galactosidase Activity, Cultured With ATC", "value": 1.0546}]}]}
